Results from PMC8273888.

Columns and labels:
[1] = tested on: [H][C@]12SCC(CSC(C(=O)O)c3ccccc3)=C(C(=O)O)N1C(=O)[C@H]2NC(=O)Cc1ccccc1; experiment: purified protein, by the assay type; conditions: pH 7.2, 25.0 °C
[2] = tested on: [H][C@]12SCC(CS[C@H](Cc3ccccc3)C(=O)O)=C(C(=O)O)N1C(=O)[C@H]2NC(=O)Cc1ccccc1; experiment: purified protein, by the assay type; conditions: pH 7.2, 25.0 °C
[3] = other: compound as substrate of NDM-1
[4] = other: compound as substrate of VIM-2

Row | Substance | Km [1, 3] [µM] | kcat [1, 3] [s⁻¹] | kcat/Km [1, 3] [M⁻¹ s⁻¹] | Km [2, 3] [µM] | kcat [2, 3] [s⁻¹] | kcat/Km [2, 3] [M⁻¹ s⁻¹] | Km [1, 4] [µM] | kcat [1, 4] [s⁻¹] | kcat/Km [1, 4] [M⁻¹ s⁻¹] | Km [2, 4] [µM] | kcat [2, 4] [s⁻¹] | kcat/Km [2, 4] [M⁻¹ s⁻¹]
1 | NDM-1 (Klebsiella pneumoniae) | 14.0 ± 2 | 13.1 | 936000 | 21.2 ± 4 | 17.4 | 821000 |  |  |  |  |  | 
2 | VIM-2 (Escherichia coli) |  |  |  |  |  |  | 8.28 ± 2 | 4.06 | 490000 | 4.30 ± 1 | 2.35 | 546000
